PMC11969024 (2025)

B1: peptide HD2 (from tick evasin EVA4) / CCL11 (biotinylated, synthetic) (parent complex)
chain 1: EEDDYTAYAPLTCYFT
chain 2: not shown

Variants of: B1

| Variant | enrichment |
| --- | --- |
| chain 1 E1Y | -1.08 log2 (difference from the parental peptide) |
| chain 1 Y5I | -4.75 log2 (difference from the parental peptide) |
| chain 1 A7D | 2.81 log2 (difference from the parental peptide) |
| chain 1 E2S | -1.71 log2 (difference from the parental peptide) |
| chain 1 F15R | -3.27 log2 (difference from the parental peptide) |
| chain 1 L11E | -2.74 log2 (difference from the parental peptide) |
| chain 1 T12W | -2.96 log2 (difference from the parental peptide) |
| chain 1 T12S | -1.64 log2 (difference from the parental peptide) |
